From the supplement of paper PMC6757056
± gives the standard deviation of the averaged measurements.

B1: library; a variant is named by its letters at N, in order (parent)
chain: GCUGUCACCGGUGUAUUACCCUAGUGGUCGACCGGUCUGAUGAGUCUNNNNNNAGACGAAACAGC

Legend:
hypoxanthine [1] = variants of: B1; experiment: normalized RNA/DNA level with ligand (relative to sTRSVctl = 100) (log10 (% of sTRSVctl)); ligand: hypoxanthine (xanthine aptamer); higher = less ribozyme self-cleavage, higher mRNA level; conditions: ligand concentration (+) RNA-Seq: 5 mM, HEK293T, reporter: mCherry (pCS4076), ligand present: yes
Method in brief: (§1)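 RNA level was computed as RNA reads over DNA reads divided by a spiked-in non-cleaving sequence or by the top sequences, then scaled and log-transformed. Scaling was ×100 with log10, the top group was 25 sequences, and the threshold was ≥100 DNA reads. The reads came from HEK293T cells transfected at 4 µg per 6-well well with ribozyme switch library plasmids (mCherry, or eGFP in some ligand experiments). Total RNA was extracted with EDTA 72 h after transfection, with any ligand added 1 h before it.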

hypoxanthine [2] = variants of: B1; experiment: normalized RNA/DNA level without ligand (relative to sTRSVctl = 100) (log10 (% of sTRSVctl)); ligand: hypoxanthine (xanthine aptamer); higher = less ribozyme self-cleavage, higher mRNA level; conditions: HEK293T, reporter: mCherry (pCS4076), ligand present: no
Method in brief: as §1

| Variant | normalized RNA/DNA level with ligand (log10) (hypoxanthine [1]) | normalized RNA/DNA level without ligand (log10) (hypoxanthine [2]) |
| --- | --- | --- |
| UAGAGC | 1.908 ± 0.017 | 1.706 ± 0.0082 |
| CAGUGC | 1.96 ± 0.0096 | 1.814 ± 0.0038 |
| CAGGAC | 1.88 ± 0.063 | 1.782 ± 0.01 |
| CAGGAG | 1.91 ± 0.022 | 1.473 ± 0.012 |
| GAGGUU | 1.97 ± 0.035 | 1.86 ± 0.023 |
| GAGGUA | 1.862 ± 0.011 | 1.673 ± 0.0085 |
| GAGGUC | 2 ± 0.043 | 1.843 ± 0.016 |
| UAGGUU | 1.961 ± 0.0077 | 1.85 ± 0.015 |
| UAGGUA | 1.96 ± 0.033 | 1.84 ± 0.036 |
| GAGAUU | 1.92 ± 0.041 | 1.82 ± 0.03 |
| GAGCUC | 1.99 ± 0.045 | 1.91 ± 0.034 |
| GAGCUU | 1.92 ± 0.1 | 1.846 ± 0.0057 |
| AAGGAC | 1.905 ± 0.017 | 1.648 ± 0.012 |
| CAGGUG | 1.9 ± 0.025 | 1.77 ± 0.03 |
| CAGGUC | 1.94 ± 0.015 | 1.874 ± 0.011 |
| CAGGUU | 1.975 ± 0.0057 | 1.86 ± 0.0041 |
| CAGGGU | 1.884 ± 0.017 | 1.75 ± 0.021 |
| CAGGGC | 1.99 ± 0.056 | 1.84 ± 0.052 |
| CAGGGA | 1.95 ± 0.04 | 1.781 ± 0.014 |
| UAGUCU | 1.96 ± 0.028 | 1.88 ± 0.019 |
| UAGUCG | 1.924 ± 0.013 | 1.737 ± 0.0043 |
| AAGCAC | 1.89 ± 0.027 | 1.69 ± 0.047 |
| AAGCAU | 1.88 ± 0.027 | 1.705 ± 0.0018 |
| AAGGUC | 1.95 ± 0.08 | 1.89 ± 0.016 |

| Variant | normalized RNA/DNA level with ligand (log10) (hypoxanthine [1]) | normalized RNA/DNA level without ligand (log10) (hypoxanthine [2]) |
| --- | --- | --- |
| CAGAGC | 1.926 ± 0.019 | 1.74 ± 0.022 |
| CAGAGU | 1.97 ± 0.035 | 1.79 ± 0.056 |
| CAGCAA | 1.885 ± 0.01 | 1.637 ± 0.014 |
| CAGCAC | 1.94 ± 0.035 | 1.81 ± 0.034 |
| CAGCAG | 1.89 ± 0.019 | 1.68 ± 0.11 |
| CAGCCC | 2.03 ± 0.052 | 1.94 ± 0.023 |
| CAGCCG | 1.947 ± 0.0075 | 1.88 ± 0.071 |
| CAGCCU | 2.039 ± 0.0086 | 1.91 ± 0.038 |
| CAGCCA | 1.9708 ± 0.0019 | 1.78 ± 0.051 |
| GAGAGU | 1.87 ± 0.091 | 1.49 ± 0.029 |
| AAGCGC | 1.89 ± 0.051 | 1.6 ± 0.039 |
| AAGUCC | 1.893 ± 0.016 | 1.81 ± 0.072 |
| UAGCAC | 1.927 ± 0.0061 | 1.8 ± 0.018 |
| UAGCAU | 1.91 ± 0.026 | 1.772 ± 0.0045 |
| AAGACU | 1.95 ± 0.064 | 1.856 ± 0.0071 |
| CAGUUC | 1.91 ± 0.11 | 1.81 ± 0.031 |
| CAGUUA | 1.87 ± 0.055 | 1.49 ± 0.035 |
| AAGUGC | 1.879 ± 0.018 | 1.53 ± 0.036 |
| UAGUUA | 1.942 ± 0.013 | 1.861 ± 0.0033 |
| GAGGGU | 1.93 ± 0.032 | 1.689 ± 0.014 |
| GAGGGA | 1.9 ± 0.053 | 1.52 ± 0.022 |
| GAGGGG | 1.814 ± 0.015 | 1.34 ± 0.033 |
| GAGCCU | 2.01 ± 0.028 | 1.94 ± 0.024 |
| GAGCCG | 1.85 ± 0.034 | 1.44 ± 0.021 |

| Variant | normalized RNA/DNA level with ligand (log10) (hypoxanthine [1]) | normalized RNA/DNA level without ligand (log10) (hypoxanthine [2]) |
| --- | --- | --- |
| GAGCCC | 1.99 ± 0.053 | 1.906 ± 0.013 |
| GAGCGU | 1.915 ± 0.0047 | 1.647 ± 0.0019 |
| AAGGCC | 1.96 ± 0.066 | 1.9104 ± 0.0016 |
| AAGGCU | 1.9 ± 0.032 | 1.83 ± 0.05 |
| AAGGCA | 1.94 ± 0.035 | 1.64 ± 0.043 |
| CAGACG | 1.98 ± 0.035 | 1.8 ± 0.081 |
| CAGACU | 1.92 ± 0.043 | 1.92 ± 0.022 |
| CAGCUA | 1.903 ± 0.012 | 1.65 ± 0.056 |
| CAGCUU | 1.954 ± 0.0095 | 1.86 ± 0.027 |
| CAGCUG | 1.946 ± 0.019 | 1.89 ± 0.028 |
| UAGCGU | 1.88 ± 0.055 | 1.46 ± 0.12 |
| UAGCGC | 1.95 ± 0.023 | 1.85 ± 0.057 |
| UAGAUA | 1.917 ± 0.0088 | 1.82 ± 0.071 |
| UAGAUC | 1.964 ± 0.012 | 1.955 ± 0.018 |
| UAGAUU | 1.93 ± 0.027 | 1.866 ± 0.017 |
| GAGCAU | 1.944 ± 0.018 | 1.72 ± 0.022 |
| CAGAUG | 1.94 ± 0.03 | 1.808 ± 0.011 |
| CAGAUA | 1.88 ± 0.052 | 1.57 ± 0.043 |
| CAGAUU | 1.96 ± 0.024 | 1.768 ± 0.015 |
| CAGAUC | 1.98 ± 0.089 | 1.91 ± 0.032 |
| UAGGGA | 1.861 ± 0.011 | 1.49 ± 0.035 |
| UAGGGC | 1.962 ± 0.01 | 1.88 ± 0.057 |
| AAGCUA | 1.91 ± 0.021 | 1.68 ± 0.056 |
| AAGCUC | 1.975 ± 0.002 | 1.959 ± 0.01 |

| Variant | normalized RNA/DNA level with ligand (log10) (hypoxanthine [1]) | normalized RNA/DNA level without ligand (log10) (hypoxanthine [2]) |
| --- | --- | --- |
| AAGCUU | 1.94 ± 0.062 | 1.86 ± 0.023 |
| CAGUCG | 1.98 ± 0.025 | 1.888 ± 0.0091 |
| CAGUCU | 1.98 ± 0.005 | 1.792 ± 0.016 |
| CAGUCA | 1.93 ± 0.025 | 1.6768 ± 0.0013 |
| CAGUCC | 1.984 ± 0.0083 | 1.88 ± 0.024 |
| GAGUCG | 1.84 ± 0.019 | 1.38 ± 0.02 |
| GAGUCU | 1.96 ± 0.026 | 1.84 ± 0.01 |
| GAGUCC | 2.015 ± 0.017 | 1.853 ± 0.013 |
| UAGGCG | 1.892 ± 0.01 | 1.67 ± 0.037 |
| UAGGCA | 1.905 ± 0.01 | 1.812 ± 0.0025 |
| UAGGCU | 1.957 ± 0.013 | 1.89 ± 0.027 |
| AAGCCU | 1.96 ± 0.02 | 1.85 ± 0.059 |
| AAGCCC | 1.97 ± 0.032 | 1.9 ± 0.041 |
| GAGGCC | 2.03 ± 0.031 | 1.93 ± 0.023 |
| UAGGAG | 1.872 ± 0.018 | 1.41 ± 0.04 |
| UAGGAC | 1.934 ± 0.0064 | 1.83 ± 0.037 |
| AAGAGC | 1.9 ± 0.046 | 1.532 ± 0.009 |
| GAGGAU | 1.955 ± 0.019 | 1.7 ± 0.074 |
| AAGUUC | 1.9 ± 0.052 | 1.787 ± 0.0052 |
| CAGCGC | 2.01 ± 0.038 | 1.847 ± 0.007 |
| CAGCGA | 1.94 ± 0.027 | 1.79 ± 0.035 |
| CAGGCC | 2 ± 0.027 | 2 ± 0.032 |
| CAGGCG | 1.96 ± 0.035 | 1.837 ± 0.0025 |
| CAGGCU | 1.938 ± 0.0094 | 1.919 ± 0.0073 |

| Variant | normalized RNA/DNA level with ligand (log10) (hypoxanthine [1]) | normalized RNA/DNA level without ligand (log10) (hypoxanthine [2]) |
| --- | --- | --- |
| CAGGCA | 1.912 ± 0.008 | 1.68 ± 0.069 |
| UAGUAC | 1.94 ± 0.031 | 1.81 ± 0.035 |
| UAGUAA | 1.939 ± 0.016 | 1.77 ± 0.022 |
| UAGUAU | 1.93 ± 0.041 | 1.761 ± 0.015 |
| UAGCUU | 2.003 ± 0.015 | 1.84 ± 0.024 |
| UAGCUG | 1.944 ± 0.011 | 1.77 ± 0.02 |
| UAGCUA | 1.96 ± 0.078 | 1.884 ± 0.0057 |
| UAGCUC | 1.98 ± 0.034 | 2.03 ± 0.038 |
| GAGACC | 1.96 ± 0.048 | 1.82 ± 0.017 |
| UAGACU | 1.925 ± 0.0021 | 1.83 ± 0.02 |
| UAGACC | 1.976 ± 0.016 | 1.92 ± 0.0073 |
| UAGACG | 1.8696 ± 0.00011 | 1.642 ± 0.013 |
| CAGUAC | 1.898 ± 0.0032 | 1.668 ± 0.015 |
| CAGUAA | 1.855 ± 0.012 | 1.53 ± 0.081 |
| GAGUUA | 1.891 ± 0.0028 | 1.64 ± 0.056 |
| UAGCCU | 2 ± 0.037 | 1.953 ± 0.006 |
| UAGCCC | 1.956 ± 0.018 | 1.885 ± 0.0052 |
| UAGCCG | 1.982 ± 0.016 | 1.728 ± 0.0043 |
| UAGCCA | 1.93 ± 0.032 | 1.91 ± 0.082 |
| UAGUGC | 1.95 ± 0.038 | 1.712 ± 0.014 |
